The target of series [1] is T1, NAD-dependent protein deacetylase sirtuin-2 (Homo sapiens, UniProt Q8IXJ6).
T1 sequence (Q8IXJ6 whole entry): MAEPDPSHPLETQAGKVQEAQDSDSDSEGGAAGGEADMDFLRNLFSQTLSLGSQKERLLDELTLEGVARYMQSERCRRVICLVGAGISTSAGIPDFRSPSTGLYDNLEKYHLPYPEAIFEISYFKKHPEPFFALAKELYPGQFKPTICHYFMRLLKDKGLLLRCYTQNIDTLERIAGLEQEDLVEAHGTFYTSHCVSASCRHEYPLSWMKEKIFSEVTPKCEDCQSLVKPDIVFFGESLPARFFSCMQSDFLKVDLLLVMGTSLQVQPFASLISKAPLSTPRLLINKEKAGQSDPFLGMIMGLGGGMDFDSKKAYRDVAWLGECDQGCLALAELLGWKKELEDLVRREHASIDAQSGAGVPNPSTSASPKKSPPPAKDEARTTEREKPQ
The series is described as follows: Inhibition of N-terminal His6 tagged human sirtuin 2 (25 to 389 residues) at 50 uM using Cbz-Lys(acetyl)-AMC as substrate after 4 hrs in presence of NAD+ by homogeneous fluorescence based analysis relative to control.

In series [2] the test system is Schistosoma mansoni. Briefly: Antiparasitic activity against Schistosoma mansoni Puerto Rico assessed as reduction in parasite viability at 10 to 20 uM after 72 hrs by microscopic analysis. The format is functional, organism-based.
For series [3], the system named is Schistosoma mansoni. The series is described as follows: Antiparasitic activity against adult Schistosoma mansoni Puerto Rico assessed as reduction in egg laying at 10 to 20 uM after 24 hrs by microscopic analysis. The format is functional, organism-based.
The target in series [4] is T1, NAD-dependent protein deacetylase sirtuin-2. The series is described as follows: Inhibition of N-terminal His6 tagged human sirtuin 2 (25 to 389 residues) assessed as inhibition of substrate demyristoylation at 20 uM using (Z)-(Myr)-Lys-AMC as susbtrate after 4 hrs in presence of NAD+ by homogeneous fluorescence based analysis relative to control.
Series [5] concerns the target T2, NAD-dependent protein deacetylase (Schistosoma mansoni, UniProt T1VXA1).
T2 sequence (T1VXA1 whole entry): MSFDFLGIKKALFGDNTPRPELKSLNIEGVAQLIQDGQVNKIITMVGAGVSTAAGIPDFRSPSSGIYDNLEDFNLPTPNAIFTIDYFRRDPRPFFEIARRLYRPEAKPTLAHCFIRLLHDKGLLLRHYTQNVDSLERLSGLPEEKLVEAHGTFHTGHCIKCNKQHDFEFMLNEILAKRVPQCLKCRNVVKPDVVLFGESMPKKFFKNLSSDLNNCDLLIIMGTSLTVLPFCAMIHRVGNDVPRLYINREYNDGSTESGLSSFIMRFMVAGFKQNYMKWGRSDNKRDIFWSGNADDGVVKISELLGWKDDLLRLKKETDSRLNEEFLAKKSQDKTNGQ
Briefly: Inhibition of recombinant Schistosoma mansoni sirtuin 2 (21 to 322 residues) expressed in Escherichia coli BL21(DE3) cells assessed as inhibition of substrate demyristoylation using (Z)-(Myr)-Lys-AMC as susbtrate after 1 hr in presence of NAD+ by homogeneous fluorescence based analysis.

For series [6], the target named is T2, NAD-dependent protein deacetylase. The series is described as follows: Inhibition of recombinant Schistosoma mansoni sirtuin 2 (21 to 322 residues) expressed in Escherichia coli BL21(DE3) cells using ZMAL as substrate after 1 hr in presence of NAD+ by homogeneous fluorescence based analysis.
The target in series [7] is T1, NAD-dependent protein deacetylase sirtuin-2. The series is described as follows: Inhibition of N-terminal His6 tagged human sirtuin 2 (25 to 389 residues) at 25 uM using Cbz-Lys(acetyl)-AMC as substrate after 4 hrs in presence of NAD+ by homogeneous fluorescence based analysis relative to control.
For series [8], the system named is Schistosoma mansoni. Briefly: Antiparasitic activity against adult Schistosoma mansoni Puerto Rico assessed as reduction in worm pairing at 10 to 20 uM after 24 hrs by microscopic analysis. The format is functional, organism-based.
Series [9] addresses T3, NAD-dependent protein deacetylase (Schistosoma mansoni) (UniProt T1VXA1).
T3 sequence (whole entry): T2 sequence (T1VXA1 whole entry)
Briefly: Inhibition of recombinant Schistosoma mansoni sirtuin 2 (21 to 322 residues) expressed in Escherichia coli BL21(DE3) cells assessed as inhibition of substrate demyristoylation at 20 uM using (Z)-(Myr)-Lys-AMC as susbtrate after 1 hr in presence of NAD+ by homogeneous fluorescence based analysis relative to control.

For a further series, the system named is HL-60. Briefly: Cytotoxicity against human HL60 cells at 10 uM after 72 hrs by Cell titer MTS dye based analysis. Particulars: hl-60, 72 h. (In general: Formazan colour is commonly taken as a measure of viable cells.)
Series [10] concerns the target T2, NAD-dependent protein deacetylase. Briefly: Ratio of Kcat for recombinant Schistosoma mansoni sirtuin 2 (21 to 322 residues) expressed in Escherichia coli BL21(DE3) cells in presence of PSDKmyr to Kcat for recombinant Schistosoma mansoni sirtuin 2 (21 to 322 residues) expressed in Escherichia coli BL21(DE3) cells in presence of PSDKac. The format is ADME.
Series [11] has the same target. Briefly: Substrate activity at recombinant Schistosoma mansoni sirtuin 2 (21 to 322 residues) expressed in Escherichia coli BL21(DE3) cells assessed as ratio of Kcat to Km up to 30 mins in presence of ZMAL at saturated concentration by homogeneous fluorescence based analysis. The note with it: 0.5 h. The format is ADME.
Substrate in series [12]: NC(=O)c1ccc[n+]([C@H]2O[C@@H](COP(=O)([O-])OP(=O)(O)OC[C@H]3O[C@@H](n4cnc5c(N)ncnc54)[C@H](O)[C@@H]3O)[C@H](O)[C@@H]2O)c1
The series is described as follows: Substrate activity at recombinant Schistosoma mansoni sirtuin 2 (21 to 322 residues) expressed in Escherichia coli BL21(DE3) cells assessed as Km up to 30 mins in presence of ZMML at saturated concentration by homogeneous fluorescence based analysis. The format is ADME.

Substrate in series [13]: NC(=O)c1ccc[n+]([C@H]2O[C@@H](COP(=O)([O-])OP(=O)(O)OC[C@H]3O[C@@H](n4cnc5c(N)ncnc54)[C@H](O)[C@@H]3O)[C@H](O)[C@@H]2O)c1
Briefly: Substrate activity at recombinant Schistosoma mansoni sirtuin 2 (21 to 322 residues) expressed in Escherichia coli BL21(DE3) cells assessed as Km up to 30 mins in presence of PSDKac at saturating concentration by RP-HPLC analysis. The format is ADME.

Substrate in series [14]: NC(=O)c1ccc[n+]([C@H]2O[C@@H](COP(=O)([O-])OP(=O)(O)OC[C@H]3O[C@@H](n4cnc5c(N)ncnc54)[C@H](O)[C@@H]3O)[C@H](O)[C@@H]2O)c1
Briefly: Substrate activity at recombinant Schistosoma mansoni sirtuin 2 (21 to 322 residues) expressed in Escherichia coli BL21(DE3) cells assessed as Km up to 30 mins in presence of ZMAL at saturated substrate concentration by homogeneous fluorescence based analysis. The format is ADME.

Substrate in series [15]: CCCCCCCCCCCCCCCC(=O)NCCCC[C@H](NC(=O)OCc1ccccc1)C(=O)Nc1ccc2c(C)cc(=O)oc2c1
Briefly: (§1) Substrate activity at recombinant Schistosoma mansoni sirtuin 2 (21 to 322 residues) expressed in Escherichia coli BL21(DE3) cells assessed as Km up to 30 mins by homogeneous fluorescence based analysis. The format is ADME.

Substrate in series [16]: CC(=O)N[C@@H](CCCCN)C(=O)Nc1ccc2c(C)cc(=O)oc2c1
Described as §1. The format is ADME.

Substrate in series [17]: CCCCCCCCCCCCCC(=O)NCCCC[C@H](NC(=O)[C@H](CC(=O)O)NC(=O)[C@H](CO)NC(=O)[C@@H]1CCCN1C(C)=O)C(=O)N[C@@H](Cc1ccc(O)cc1)C(=O)N[C@H](C(=O)NCC(=O)NCC(=O)N[C@@H](Cc1c[nH]c2ccccc12)C(=O)N[C@@H](Cc1c[nH]c2ccccc12)C(N)=O)[C@@H](C)CC
The series is described as follows: Substrate activity at recombinant Schistosoma mansoni sirtuin 2 (21 to 322 residues) expressed in Escherichia coli BL21(DE3) cells assessed as Km up to 30 mins by RP-HPLC analysis. The format is ADME.

Substrate in series [18]: NC(=O)c1ccc[n+]([C@H]2O[C@@H](COP(=O)([O-])OP(=O)(O)OC[C@H]3O[C@@H](n4cnc5c(N)ncnc54)[C@H](O)[C@@H]3O)[C@H](O)[C@@H]2O)c1
The series is described as follows: Substrate activity at recombinant Schistosoma mansoni sirtuin 2 (21 to 322 residues) expressed in Escherichia coli BL21(DE3) cells assessed as Km up to 30 mins in presence of PSDKmyr at saturating concentration by RP-HPLC analysis. The format is ADME.

Activity calls are given as the source filed them. The rule behind the calls is not given here.

Results on 3 molecules are retold here after ChEMBL document CHEMBL4321809, “Structure-Reactivity Relationships on Substrates and Inhibitors of the Lysine Deacylase Sirtuin 2 from Schistosoma mansoni (SmSirt2)” (J Med Chem, 2019).

Consider `COc1ccc(Oc2ccc(C(C)N(C)c3ncc4c(N)nc(N)nc4n3)cc2)cc1` (stereo unspecified), for which the inhibition at 50 µM in series [1] is 24.1%. Also, the inhibition entry with Schistosoma mansoni [2], in the series with Schistosoma mansoni [3] and in the series on Schistosoma mansoni [8] was “Active” in each case. In series [4], the inhibition at 20 µM is under 15%. The figures for the IC50 in series [5] and in [6] were 16.8 µM and 23.7 µM, respectively. For the same molecule, the inhibition at 25 µM in series [7] turned out to be 21.9%. In addition, in [9], the Imax is 45%. The Activity result with HL-60 is “Non-Toxic”.
As for `NC(=O)c1ccc[n+]([C@H]2O[C@@H](COP(=O)([O-])OP(=O)(O)OC[C@H]3O[C@@H](n4cnc5c(N)ncnc54)[C@H](O)[C@@H]3O)[C@H](O)[C@@H]2O)c1`, the Ratio in series [10] is listed as 3. Also, the Kcat/Km in series [11] was 9.4 ×10¹ /s/M.

B1: NAD-dependent protein deacetylase (Schistosoma mansoni) (protein)
chain: T2 sequence (T1VXA1 whole entry)
For B1, the Km in [12] stood at 9.3 µM; in [13], 33.9 µM; in series [14] it was 75.8 µM; in series [15], 37.5 µM; in series [16], 59 µM; in series [17], 15.1 µM. For the same molecule, the Km in series [18] is 13.3 µM. In addition, the kcat turned out to be 0.00172 s⁻¹ in series [13], 0.000119 s⁻¹ in series [14], 0.00563 s⁻¹ in series [17] and 0.00538 s⁻¹ in [18]. Also, the catalytic efficiency (kcat/Km) in series [13] is 51 M⁻¹ s⁻¹; in series [17], 370 M⁻¹ s⁻¹; in series [18] it was 410 M⁻¹ s⁻¹.

A word on the inhibition: it is the drop in the measured response relative to a control, in per cent. Usually IC50 stands for the midpoint of a concentration-inhibition curve. In general, Km refers to the substrate concentration at which the rate is half of its maximum. What is called kcat is the maximal rate divided by the concentration of active sites. A word on the kcat/Km: it is the turnover number divided by the Michaelis constant.
